Experimental data taken from patent US20120034160A1 (AbbVie / Abbott, published 2012).
“And” between values parts separate entries of the source, which are not always exact repeats. Identical values can stand only once.

Key:
[1] = target: T1, Recombinant Human IL-17 (human, UniProt Q16552 20-155, limits assumed); assay: Biacore SPR
T1 construct: bought reagent
T1 sequence (looked up): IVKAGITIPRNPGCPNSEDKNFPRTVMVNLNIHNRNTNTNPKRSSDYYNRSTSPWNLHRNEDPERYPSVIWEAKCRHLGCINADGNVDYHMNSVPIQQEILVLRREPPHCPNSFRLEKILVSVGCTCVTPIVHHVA
Procedure: (§1) The BIACORE assay (Biacore, Inc, Piscataway, N.J.) determines the affinity of antibodies or DVD-Ig with kinetic measurements of on-rate and off-rate constants. Binding of antibodies or DVD-Ig to a target antigen (for example, a purified recombinant target antigen) was determined by surface plasmon resonance-based measurements with a Biacore® 1000 or 3000 instrument (Biacore® AB, Uppsala, Sweden) using running HBS-EP (10 mM HEPES [pH 7.4], 150 mM NaCl, 3 mM EDTA, and 0.005% surfactant P20) at 25° C. All chemicals were obtained from Biacore® AB (Uppsala, Sweden) or otherwise from a different source as described in the text. For example, approximately 5000 RU of goat anti-mouse IgG, (Fcγ), fragment specific polyclonal antibody (Pierce Biotechnology Inc, Rockford, Ill.) diluted in 10 mM sodium acetate (pH 4.5) was directly immobilized across a CM5 research grade biosensor chip using a standard amine coupling kit according to manufacturer's instructions and procedures at 25 μg/ml. Unreacted moieties on the biosensor surface were blocked with ethanolamine. Modified carboxymethyl dextran surface in flowcell 2 and 4 was used as a reaction surface. Unmodified carboxymethyl dextran without goat anti-mouse IgG in flow cell 1 and 3 was used as the reference surface. For kinetic analysis, rate equations derived from the 1:1 Langmuir binding model were fitted simultaneously to association and dissociation phases of all eight injections (using global fit analysis) with the use of Biaevaluation 4.0.1 software. Purified antibodies or DVD-Ig were diluted in HEPES-buffered saline for capture across goat anti-mouse IgG specific reaction surfaces. Antibodies or DVD-Ig to be captured as a ligand (25 μg/ml) were injected over reaction matrices at a flow rate of 5 μl/min. The association and dissociation rate constants, kₒₙ (M⁻¹s⁻¹) and koff (s⁻¹) were determined under a continuous flow rate of 25 μl/min. Rate constants were derived by making kinetic binding measurements at different antigen concentrations ranging from 10−200 nM. The equilibrium dissociation constant (M) of the reaction between antibodies or DVD-Igs and the target antigen was then calculated from the kinetic rate constants by the following formula: KD=koff/kₒₙ. Binding was recorded as a function of time and kinetic rate constants are calculated.

[2] = target: T2, Recombinant Human IL-17 (human, UniProt Q16552 20-155, limits assumed); assay: Biacore SPR
T2 construct: Bought reagent
T2 sequence (looked up): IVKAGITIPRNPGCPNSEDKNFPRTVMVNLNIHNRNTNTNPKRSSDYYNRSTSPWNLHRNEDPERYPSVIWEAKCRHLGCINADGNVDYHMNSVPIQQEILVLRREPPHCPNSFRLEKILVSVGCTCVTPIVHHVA
Procedure: as §1

[3] = target: T2, Recombinant Human IL-17; assay: cell-based or functional assay
[4] = target: T1, Recombinant Human IL-17; assay: Biacore SPR; first run, parent printed with DVD1282-DVD1291; kon 2.80E+03, koff 2.40E-05
Procedure: (§2) The BIACORE assay (Biacore, Inc, Piscataway, N.J.) determines the affinity of antibodies or DVD-Ig with kinetic measurements of on-rate and off-rate constants. Binding of antibodies or DVD-Ig to a target antigen (for example, a purified recombinant target antigen) was determined by surface plasmon resonance-based measurements with a Biacore® 1000 or 3000 instrument (Biacore® AB, Uppsala, Sweden) using running HBS-EP (10 mM HEPES [pH 7.4], 150 mM NaCl, 3 mM EDTA, and 0.005% surfactant P20) at 25° C. All chemicals were obtained from Biacore® AB (Uppsala, Sweden) or otherwise from a different source as described in the text. […] The association and dissociation rate constants, kₒₙ (M⁻¹s⁻¹) and koff (s⁻¹) were determined under a continuous flow rate of 25 μl/min. […] The equilibrium dissociation constant (M) of the reaction between antibodies or DVD-Igs and the target antigen was then calculated from the kinetic rate constants by the following formula: KD=koff/kₒₙ. Binding was recorded as a function of time and kinetic rate constants are calculated.

[5] = target: T2, Recombinant Human IL-17; assay: Biacore SPR; later run, parent printed with DVD1639-DVD1648; kon 4.70E+06, koff 8.50E-05
Procedure: as §2

[6] = target: T3, Recombinant Human IL-1β (human, UniProt P01584 117-269); assay: Biacore SPR
T3 construct: Bought reagent; also called IL-1B
Procedure: as §1

[7] = target: T3, Recombinant Human IL-1β; assay: cell-based or functional assay
[8] = target: T4, Recombinant Human IL-1β (human, UniProt P01584 117-269); assay: Biacore SPR
T4 construct: bought reagent; also called IL-1B
Procedure: as §1

B1: AB273 (antibody, human IgG1, kappa, V domains shown)
VH: EVQLVQSGAEVKKPGSSVKVSCKASGYTFTDYEIHWVRQAPGQGLEWMGVNDPESGGTFYNQKFDGRVTLTADESTSTAYMELSSLRSEDTAVYYCTRYSKWDSFDGMDYWGQGTTVTVSS
VL: DIQMTQSPSSLSASVGDRVTITCRASSGIISYIDWFQQKPGKAPKRLIYATFDLASGVPSRFSGSGSGTDYTLTISSLQPEDFATYYCRQVGSYPETFGQGTKLEIKR
notes: constants by vectors: V1 wt hIgG1, V2 kappa
- koff [1]: ≤ 1e-05 s⁻¹ and 1.2e-05 s⁻¹ and 1.3e-05 s⁻¹

B2: AB274 (antibody, human IgG1, kappa, V domains shown)
VH: EVQLVQSGAEVKKPGSSVKVSCKASGGSFGGYGIGWVRQAPGQGLEWMGGITPFFGFADYAQKFQGRVTITADESTTTAYMELSGLTSDDTAVYYCARDPNEFWNGYYSTHDFDSWGQGTTVTVSS
VL: EIVLTQSPDFQSVTPKEKVTITCRASQDIGSELHWYQQKPDQPPKLLIKYASHSTSGVPSRFSGSGSGTDFTLTINGLEAEDAGTYYCHQTDSLPYTFGPGTKVDIKR
notes: Parent antibody
- Kd [2]: 0.0068 nM
- koff [2]: 1.8e-05 s⁻¹
- kon [2]: 2.7e+06 M⁻¹ s⁻¹
- IL-17 Neutralization Assay EC50 [3]: 0.002 nM

B3: AB274 (antibody, human IgG1, kappa, V domains shown)
VH: EVQLVQSGAEVKKPGSSVKVSCKASGGSFGGYGIGWVRQAPGQGLEWMGGITPFFGFADYAQKFQGRVTITADESTTTAYMELSGLTSDDTAVYYCARDPNEFWNGYYSTHDFDSWGQGTTVTVSS
VL: EIVLTQSPDFQSVTPKEKVTITCRASQDIGSELHWYQQKPDQPPKLLIKYASHSTSGVPSRFSGSGSGTDFTLTINGLEAEDAGTYYCHQTDSLPYTFGPGTKVDIKR
notes: as for B1
- koff [1]: 2e-05 s⁻¹ and 2.1e-05 s⁻¹ and 1.8e-05 s⁻¹

B4: AB275 (antibody, human IgG1, kappa, V domains shown)
VH: EVQLVQSGAEVKKPGESVKISCKASGGSFRSYGISWVRQAPGQGLEWMGGITHFFGITDYAQKFQGRVTITADESTTTAYMELSGLTSDDTAVYYCAREPNDFWNGYYDTHDFDSWGQGTTVTVSS
VL: EIVLTQSPDFQSVTPKEKVTITCRASQNIGSELHWYQQKPDQSPKLLIKYASHSISGVPSRFSGSGSGTDFTLTINGLEAEDAATYYCHQSDTLPHTFGQGTKVDIKR
notes: as for B1
- Kd [1]: 0.019 nM
- Kd [4]: 8.8 nM

B5: AB275 (antibody, human IgG1, kappa, V domains shown)
VH: EVQLVQSGAEVKKPGESVKISCKASGGSFRSYGISWVRQAPGQGLEWMGGITHFFGITDYAQKFQGRVTITADESTTTAYMELSGLTSDDTAVYYCAREPNDFWNGYYDTHDFDSWGQGTTVTVSS
VL: EIVLTQSPDFQSVTPKEKVTITCRASQNIGSELHWYQQKPDQSPKLLIKYASHSISGVPSRFSGSGSGTDFTLTINGLEAEDAATYYCHQSDTLPHTFGQGTKVDIKR
notes: Parent antibody
- koff [2]: 8.5e-05 s⁻¹
- kon [2]: 4.7e+06 M⁻¹ s⁻¹
- Kd [5]: 0.018 nM
- IL-17 Neutralization Assay EC50 [3]: 0.0032 nM

B6: AB270 (antibody, human IgG1, kappa, V domains shown)
VH: EVQLQESGPGLVKPSETLSLTCTVSGFSLSDYGVSWIRQPPGKGLEWLGLIWGGGDTYYNSPLKSRLTISKDNSKSQVSLKLSSVTAADTAVYYCAKQRTLWGYDLYGMDYWGQGTLVTVSS
VL: DTQVTQSPSSLSASVGDRVTITCITSTDIDVDMNWYQQKPGKPPKLLISQGNTLRPGVPSRFSSSGSGTDFTFTISSLQPEDFATYYCLQSDNLPLTFGQGTKLEIKR
notes: Parent antibody
- Kd [6]: 0.08 nM
- koff [6]: 0.00053 s⁻¹
- kon [6]: 6.6e+06 M⁻¹ s⁻¹
- IL-1β Neutralization Assay EC50 [7]: 0.245 nM

B7: AB270 (antibody, human IgG1, kappa, V domains shown)
VH: EVQLQESGPGLVKPSETLSLTCTVSGFSLSDYGVSWIRQPPGKGLEWLGLIWGGGDTYYNSPLKSRLTISKDNSKSQVSLKLSSVTAADTAVYYCAKQRTLWGYDLYGMDYWGQGTLVTVSS
VL: DTQVTQSPSSLSASVGDRVTITCITSTDIDVDMNWYQQKPGKPPKLLISQGNTLRPGVPSRFSSSGSGTDFTFTISSLQPEDFATYYCLQSDNLPLTFGQGTKLEIKR
notes: as for B1
- Kd [8]: 0.089 nM and 0.082 nM and 0.08 nM
- koff [8]: 0.00058 s⁻¹ and 0.00055 s⁻¹ and 0.00053 s⁻¹
- kon [8]: 6.5e+06 M⁻¹ s⁻¹ and 6.7e+06 M⁻¹ s⁻¹ and 6.6e+06 M⁻¹ s⁻¹

B8: AB271 (antibody, human IgG1, kappa, V domains shown)
VH: EVQLQESGPGLVKPSETLSLTCTVSGFSLSDYGVSWIRQPPGKGLEWLGLIWGGGDTYYNSPLKSRLTISKDNSKSQVSLKLSSVTAADTAVYYCAKQRTLWGYDLYGMDYWGQGTLVTVSS
VL: DTVVTQSPAFLSVTPGEKVTITCITSTDIDVDMNWYQQKPDQPPKLLISQGNTLRPGVPSRFSSSGSGTDFTFTISSLEAEDAATYYCLQSDNLPLTFGQGTKLEIKR
notes: Parent antibody
- Kd [6]: 0.11 nM
- koff [6]: 0.00051 s⁻¹
- kon [6]: 4.6e+06 M⁻¹ s⁻¹
- IL-1β Neutralization Assay EC50 [7]: 0.308 nM

B9: AB272 (antibody, human IgG1, kappa, V domains shown)
VH: EVQLVESGGGLVQPGGSLRLSCAVSGFTLSDYGVSWIRQAPGKGLEWLGLIWGGGDTYYNSPLKSRLTISKDNSKSTVYLQMNSLRAEDTAVYYCAKQRTLWGYDLYGMDYWGQGTLVTVSS
VL: ETTVTQSPSSLSASVGDRVTITCITSTDIDVDMNWYQQKPGKPPKLLISQGNTLRPGVPSRFSSSGSGTDFTFTISSLQPEDFATYYCLQSDNLPLTFGQGTKLEIKR
notes: Parent antibody
- Kd [6]: 0.14 nM
- koff [6]: 0.00056 s⁻¹
- kon [6]: 4e+06 M⁻¹ s⁻¹
- IL-1β Neutralization Assay EC50 [7]: 0.298 nM

B10: AB271 (antibody, human IgG1, kappa, V domains shown)
VH: EVQLQESGPGLVKPSETLSLTCTVSGFSLSDYGVSWIRQPPGKGLEWLGLIWGGGDTYYNSPLKSRLTISKDNSKSQVSLKLSSVTAADTAVYYCAKQRTLWGYDLYGMDYWGQGTLVTVSS
VL: DTVVTQSPAFLSVTPGEKVTITCITSTDIDVDMNWYQQKPDQPPKLLISQGNTLRPGVPSRFSSSGSGTDFTFTISSLEAEDAATYYCLQSDNLPLTFGQGTKLEIKR
notes: as for B1
- Kd [8]: 0.11 nM and 0.096 nM
- koff [8]: 0.00055 s⁻¹ and 0.00057 s⁻¹ and 0.00051 s⁻¹
- kon [8]: 5.1e+06 M⁻¹ s⁻¹ and 6e+06 M⁻¹ s⁻¹ and 4.6e+06 M⁻¹ s⁻¹

B11: AB272 (antibody, human IgG1, kappa, V domains shown)
VH: EVQLVESGGGLVQPGGSLRLSCAVSGFTLSDYGVSWIRQAPGKGLEWLGLIWGGGDTYYNSPLKSRLTISKDNSKSTVYLQMNSLRAEDTAVYYCAKQRTLWGYDLYGMDYWGQGTLVTVSS
VL: ETTVTQSPSSLSASVGDRVTITCITSTDIDVDMNWYQQKPGKPPKLLISQGNTLRPGVPSRFSSSGSGTDFTFTISSLQPEDFATYYCLQSDNLPLTFGQGTKLEIKR
notes: as for B1
- Kd [8]: 0.14 nM and 0.12 nM
- koff [8]: 0.00053 s⁻¹ and 0.00066 s⁻¹ and 0.00056 s⁻¹
- kon [8]: 3.9e+06 M⁻¹ s⁻¹ and 5.3e+06 M⁻¹ s⁻¹ and 4e+06 M⁻¹ s⁻¹
